Measured values from patent publication US7988958B2, “Enterococcus and Streptococcus strains and bacteriocins” (The United States of America as represented by the …, priority 2005, dated 2011).
Where “and” joins values, the source holds several entries; their conditions need not be identical. Equal entries are not always repeated. Where two headings read alike, the source gives them in different places.

Assays:
Campylobacter jejuni = test: Antagonistic activity of products purified by Methods A and B; format: cell-based; parameters: Specific Activity UE/ml: unit not given here
S. enteritidis 4 = test: MIC by spot test; format: cell-based
C. jejuni = test: Activity of bacteriocin preparations from culture with and without inducer strain (arbitrary units); format: cell-based, Campylobacter jejuni
[1] = Isoelectric focusing (pI); format: physicochemical; conditions: for pI of the band with antimicrobial activity: pure bacteriocin, gel overlaid with Campylobacter jejuni
E. coli O157:H7 904 [2] = test: Spot test; format: cell-based; conditions: for Inhibiting activity in Spot Test: crude antimicrobial preparation (CAP), E. coli O157:H7 904; for Inhibiting Activity, Spot Test: purified bacteriocin, E. coli O157:H7
E. coli O157:H7 904 [3] = test: SDS-PAGE gel overlaid with test strain; format: cell-based; conditions: for Inhibiting Activity measured by SDS-PAGE: CAP, active band, E. coli O157:H7 904; for Inhibiting Activity SDS-PAGE: purified bacteriocin, E. coli O157:H7
Experimental: (§1) CAPs and bacteriocins were electrophoresed in about 15% […] gel weight, about 1% SDS (9×12 cm) in Tri-glycine buffer. After electrophoresis at about 100 mA for approximately 4 hours, gels were fixed with a solution containing approximately 15% ethanol and approximately 1% acetic acid. The gels were then washed with distilled water for approximately 4 hours. To determine molecular weights of protein fractions, the gel was stained with a solution containing approximately 0.21% Coomassi Blue G-250, about 40% ethanol, and about 7% acetic acid. Washed gels were tested against three target bacteria, C. jejuni NCTC 11168, E. coli 0157:H7 904, and S. enteritidis 204 by the method of Bhunia et al. (Journal of Industrial Microbiology, Volume 2, 319-322, 1987; herein incorporated by reference). The gels were placed in Petri dishes, covered with 5% blood-semi-solid Campylobacter agar (about 0.75%) or semi-solid MPA, and seeded with cells of the test strains. Plates containing C. jejuni were incubated at about 42° C. for approximately 48 hours under microaerobic conditions, E. coli 0157:H7 and S. enteriditidis at about 37° C. for approximately 24 hours. Assessment was based on visualization of zones of the inhibited growth of the test strains in the presence of bacteriocins.

S. enteritidis 204 [4] = test: SDS-PAGE gel overlaid with test strain; format: cell-based; conditions: for Inhibiting Activity measured by SDS-PAGE: CAP, active band; for Inhibiting Activity SDS-PAGE: purified bacteriocin
Experimental: as §1

S. enteritidis 1 = test: MIC by spot test; format: cell-based
S. gallinarum pullorum = test: MIC by spot test; format: cell-based
E. coli C600 = test: MIC by spot test; format: cell-based
C. jejuni NCTC 11168 = test: SDS-PAGE gel overlaid with test strain; format: cell-based, Campylobacter jejuni; conditions: for Inhibiting Activity measured by SDS-PAGE: CAP, active band, C. jejuni NCTC 11168; for Inhibiting Activity SDS-PAGE: purified bacteriocin, C. jejuni
Experimental: as §1

Campylobacter spp. Cez-4 = test: MIC by agar diffusion; format: cell-based; conditions: Campylobacter spp. strain Cez-4
Experimental: (§2) The susceptibility of Campylobacter spp. to purified preparations of bacteriocins 760 and E50-52 was determined using strains isolated from broiler chicks as described above in Example 1. Antagonistic activity of the bacteriocins was assessed on the basis of minimum inhibitory concentrations (MICs) which were determined by agar diffusion. […] All the tested bacteriocins are highly antagonistic to the Campylobacter spp. strains.

Campylobacter spp. G-2 = test: MIC by agar diffusion; format: cell-based; conditions: Campylobacter spp. strain G-2
Experimental: as §2

Campylobacter spp. P-21 = test: MIC by agar diffusion; format: cell-based; conditions: Campylobacter spp. strain P-21
Experimental: as §2

Campylobacter spp. I/U-1 = test: MIC by agar diffusion; format: cell-based; conditions: Campylobacter spp. strain I/U-1
Experimental: as §2

Campylobacter spp. P-2 = test: MIC by agar diffusion; format: cell-based; conditions: Campylobacter spp. strain P-2
Experimental: as §2

Campylobacter spp. P-24 = test: MIC by agar diffusion; format: cell-based; conditions: Campylobacter spp. strain P-24
Experimental: as §2

Campylobacter spp. B-3 = test: MIC by agar diffusion; format: cell-based; conditions: Campylobacter spp. strain B-3
Experimental: as §2

Campylobacter spp. K-10 = test: MIC by agar diffusion; format: cell-based; conditions: Campylobacter spp. strain K-10
Experimental: as §2

Campylobacter spp. P-27 = test: MIC by agar diffusion; format: cell-based; conditions: Campylobacter spp. strain P-27
Experimental: as §2

Campylobacter spp. P-31 = test: MIC by agar diffusion; format: cell-based; conditions: Campylobacter spp. strain P-31
Experimental: as §2

Campylobacter spp. P-32 = test: MIC by agar diffusion; format: cell-based; conditions: Campylobacter spp. strain P-32
Experimental: as §2

Campylobacter spp. F-1 = test: MIC by agar diffusion; format: cell-based; conditions: Campylobacter spp. strain F-1
Experimental: as §2

[5] = tested on: Campylobacter spp. Ind18/2; test: MIC by agar diffusion; format: cell-based; conditions: Campylobacter spp. strain Ind18/2
Experimental: as §2

Campylobacter spp. G-1 = test: MIC by agar diffusion; format: cell-based; conditions: Campylobacter spp. strain G-1
Experimental: as §2

Campylobacter spp. P-28 = test: MIC by agar diffusion; format: cell-based; conditions: Campylobacter spp. strain P-28
Experimental: as §2

Staphylococcus aureus = test: MIC by spot test; format: cell-based
E. coli O157:H7 904 [6] = test: IEF gel tested for growth inhibition of test strain; format: cell-based; conditions: for Inhibiting Activity measured by IEF: CAP, active band, E. coli O157:H7 904; for Inhibiting Activity IEF: purified bacteriocin, E. coli O157:H7
Experimental: as §1
(§3) Specimens of bacteriocins were placed on IEF gels (pH approximately 4.4-10.0) (Novex, San Diego, Calif.). The gels were run at about 100V for about 1 hour, 200V for about 2 hour, and 500V for about 30 minutes in XCM II™ Mini-Cell (Novex). Gels were washed with distilled water for about 4 hours without fixation followed by staining with Coomassie Blue G-250 to determine isoelectric points (pI) of the bacteriocins and their ability to inhibit the growth of the test strains as presented in FIGS. 1 and 2 and in Table 2.

S. enteritidis 204 [7] = test: as above; format: cell-based; conditions: for Inhibiting Activity measured by IEF: CAP, active band; for Inhibiting Activity IEF: purified bacteriocin
Experimental: as §1, §3

E. coli O157:H7 G-3 = test: MIC by spot test; format: cell-based
[8] = cultivation with inducer strain
[9] = cultivation without inducer strain

## Bacteriocin 50-52: bacteriocin produced by Enterococcus durans/faecium/hirae NRRL B-30746 (strain 50-52); amino acid sequence SEQ ID NO 1 (TTKNYGNGVCNSVNWCQCGNVWASCNLATGCAAWLCKLA; listed as Enterococcus faecium)
Campylobacter jejuni; isolated by Method A
  Activity UE/ml: 6,400 UE/ml
  Specific Activity UE/ml: 85,333
Campylobacter jejuni; isolated by Method B
  Activity UE/ml: 12,800 UE/ml
  Specific Activity UE/ml: 320,000
S. enteritidis 4
  MICs: 0.1 µg/mL
C. jejuni; [8]
  Activity AU/ml: 12,800 AU/ml
  Specific Activity AU/mg: 320,000 AU/mg
C. jejuni; [9]
  Activity AU/ml: 3,200 AU/ml
  Specific Activity AU/mg: 213,333 AU/mg
[1]; [8]
  IEF (pI): 8.4
[1]; [9]
  IEF (pI): 8.4
[1]; isolated by Method A
  IEF (pI): 8.4
[1]; isolated by Method B
  IEF (pI): 8.4
[1]
  pI of the band with antimicrobial activity: about 8.4
E. coli O157:H7 904 [2]
  Inhibiting activity in Spot Test: 3,200 AU/ml
  Inhibiting Activity, Spot Test: 6,400 AU/ml
E. coli O157:H7 904 [3]
  Inhibiting Activity measured by SDS-PAGE: M.W. 3.9 kDa
  Inhibiting Activity SDS-PAGE: +Band 1
S. enteritidis 204 [4]
  Inhibiting Activity measured by SDS-PAGE: M.W. 3.9 kDa
  Inhibiting Activity SDS-PAGE: +Band 1
S. enteritidis 1
  MICs: 0.1 µg/mL
S. gallinarum pullorum
  MICs: 0.1 µg/mL
E. coli C600
  MICs: 0.1 µg/mL
C. jejuni NCTC 11168
  Inhibiting Activity measured by SDS-PAGE: M.W. 3.9 kDa
  Inhibiting Activity SDS-PAGE: +Band 1
Campylobacter spp. Cez-4
  MICs: 0.1 µg/mL
Campylobacter spp. G-2
  MICs: 0.1 µg/mL
Campylobacter spp. P-21
  MICs: 0.05 µg/mL
Campylobacter spp. I/U-1
  MICs: 0.05 µg/mL
Campylobacter spp. P-2
  MICs: 0.05 µg/mL
Campylobacter spp. P-24
  MICs: 0.05 µg/mL
Campylobacter spp. B-3
  MICs: 0.05 µg/mL
Campylobacter spp. K-10
  MICs: 0.05 µg/mL
Campylobacter spp. P-27
  MICs: 0.1 µg/mL
Campylobacter spp. P-31
  MICs: 0.1 µg/mL
Campylobacter spp. P-32
  MICs: 0.1 µg/mL
Campylobacter spp. F-1
  MICs: 0.1 µg/mL
[5]
  MICs: 0.05 µg/mL
Campylobacter spp. G-1
  MICs: 0.05 µg/mL
Campylobacter spp. P-28
  MICs: 0.1 µg/mL
Staphylococcus aureus
  MICs: 0.4 µg/mL
E. coli O157:H7 904 [6]
  Inhibiting Activity measured by IEF: band 1
  Inhibiting Activity IEF: +Band 1
S. enteritidis 204 [7]
  Inhibiting Activity measured by IEF: band 1
  Inhibiting Activity IEF: +Band 1
E. coli O157:H7 G-3
  MICs: 0.1 µg/mL

B1: Bacteriocin 760: bacteriocin produced by Enterococcus durans/faecium/hirae NRRL B-30745 (strain 760); amino acid sequence SEQ ID NO 2 (protein, listed as Streptococcus cricetus)
chain: NRWYCNSAAGGVGGAAVCGLAGYVGEAKENIAGEVRKGWGMAGGFTHNKACKSFPGSGWASG
Campylobacter jejuni; isolated by Method A
  Activity UE/ml: 12,800 UE/ml
  Specific Activity UE/ml: 71,111
Campylobacter jejuni; isolated by Method B
  Activity UE/ml: 51,200 UE/ml
  Specific Activity UE/ml: 284,444
S. enteritidis 4
  MIC: 400 µg/mL
C. jejuni
  Specific Activity AU/mg: 160,000 AU/mg and 284,444 AU/mg
[1]
  IEF (pI): 9.5
  pI of the band with antimicrobial activity: about 9.5
[1]; isolated by Method A
  IEF (pI): 9.5
[1]; isolated by Method B
  IEF (pI): 9.5
E. coli O157:H7 904 [2]
  Inhibiting activity in Spot Test: 12,800 AU/ml
  Inhibiting Activity, Spot Test: 12,800 AU/ml
E. coli O157:H7 904 [3]
  Inhibiting Activity measured by SDS-PAGE: M.W. 5.5 kDa
  Inhibiting Activity SDS-PAGE: +Band 1
S. enteritidis 204 [4]
  Inhibiting Activity measured by SDS-PAGE: M.W. 5.5 kDa
  Inhibiting Activity SDS-PAGE: +Band 1
S. enteritidis 1
  MIC: 200 µg/mL
S. gallinarum pullorum
  MIC: 400 µg/mL
E. coli C600
  MIC: 100 µg/mL
C. jejuni NCTC 11168
  Inhibiting Activity measured by SDS-PAGE: M.W. 5.5 kDa
  Inhibiting Activity SDS-PAGE: +Band 1
Campylobacter spp. Cez-4
  MICs: 0.1 µg/mL
Campylobacter spp. G-2
  MICs: 0.05 µg/mL
Campylobacter spp. P-21
  MICs: 0.1 µg/mL
Campylobacter spp. I/U-1
  MICs: 0.05 µg/mL
Campylobacter spp. P-2
  MICs: 0.05 µg/mL
Campylobacter spp. P-24
  MICs: 0.05 µg/mL
Campylobacter spp. B-3
  MICs: 0.05 µg/mL
Campylobacter spp. K-10
  MICs: 0.05 µg/mL
Campylobacter spp. P-27
  MICs: 0.05 µg/mL
Campylobacter spp. P-31
  MICs: 0.05 µg/mL
Campylobacter spp. P-32
  MICs: 0.05 µg/mL
Campylobacter spp. F-1
  MICs: 0.05 µg/mL
[5]
  MICs: 0.05 µg/mL
Campylobacter spp. G-1
  MICs: 0.05 µg/mL
Campylobacter spp. P-28
  MICs: 0.05 µg/mL
Staphylococcus aureus
  MIC: 1600 µg/mL
E. coli O157:H7 904 [6]
  Inhibiting Activity measured by IEF: band 1
  Inhibiting Activity IEF: +Band 1
S. enteritidis 204 [7]
  Inhibiting Activity measured by IEF: band 1
  Inhibiting Activity IEF: +Band 1
E. coli O157:H7 G-3
  MIC: 1600 µg/mL
